Test results published in patent US20250361322A1 (ICONIC THERAPEUTICS, published 2025).

T1: pig TF ECD-His (TF-His) protein (pig (Sus scrofa))
T1 construct: also called pig TF-His; pTF
T1 chain: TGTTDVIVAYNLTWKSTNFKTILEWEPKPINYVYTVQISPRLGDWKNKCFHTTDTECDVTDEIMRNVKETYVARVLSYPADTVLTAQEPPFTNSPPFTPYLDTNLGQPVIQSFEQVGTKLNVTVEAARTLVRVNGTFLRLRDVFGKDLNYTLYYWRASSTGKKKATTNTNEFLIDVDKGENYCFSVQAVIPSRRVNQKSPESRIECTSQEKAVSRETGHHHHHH


Legend:
[1] = biological target: T2, human Tissue Factor (TF) (human, UniProt P13726 33-295); experiment: flow cytometry, MDA-MB-231 cells; competitor 20 nM FVII-Fc-Alexa488; antibody at 83 nM
T2 construct: also called hTF; CD142
Procedure: (§1) After another 1 hr incubation on ice, cells were washed, stained with a viability dye, and analyzed by flow cytometry. The Alexa488 fluorescence data from viable cells was summarized using median fluorescence intensity.

[2] = biological target: T2, human Tissue Factor (TF); experiment: flow cytometry, A431 cells; antibody at 100 nM; competitor 20 nM 25A-Alexa488
Procedure: as §1

[3] = biological target: T2, human Tissue Factor (TF); experiment: flow cytometry, MDA-MB-231 cells; competitor 20 nM FVII-Fc-Alexa488; antibody at 9.25 nM
Procedure: as §1

[4] = biological target: T2, human Tissue Factor (TF); experiment: flow cytometry, MDA-MB-231 cells; competitor 20 nM FVII-Fc-Alexa488; antibody at 250 nM
Procedure: as §1

[5] = biological target: T2, human Tissue Factor (TF); experiment: flow cytometry, A431 cells; antibody at 100 nM; competitor 20 nM 43Ea-Alexa488
Procedure: as §1

[6] = biological target: T2, human Tissue Factor (TF); experiment: cell-based or functional assay
[7] = biological target: T2, human Tissue Factor (TF); experiment: cell-based or functional assay; remark: listed apart in the source
[8] = biological target: T2, human Tissue Factor (TF); experiment: flow cytometry, MDA-MB-231 cells; competitor 20 nM FVII-Fc-Alexa488; antibody at 28 nM
Procedure: as §1

[9] = biological target: T3, human Tissue Factor (hTF) (human, UniProt P13726 33-295); experiment: cell-based or functional assay
[10] = biological target: T4, rabbit TF ECD-His (TF-His) protein (rabbit (Oryctolagus cuniculus), UniProt P24055 33-250); experiment: Biacore; antibody captured by anti-human IgG on CM5 chip, titration of rabbit TF-His, 1:1 model
T4 construct: also called rabbit TF-His
T4 sequence (P24055 other isoform, or with tags, fused parts or gaps): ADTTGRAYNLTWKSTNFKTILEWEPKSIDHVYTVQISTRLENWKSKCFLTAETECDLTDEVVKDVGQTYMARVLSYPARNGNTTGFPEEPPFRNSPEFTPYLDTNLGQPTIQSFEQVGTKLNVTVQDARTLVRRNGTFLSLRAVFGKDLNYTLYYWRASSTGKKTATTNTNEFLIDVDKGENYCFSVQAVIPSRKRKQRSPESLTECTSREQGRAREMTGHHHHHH
Procedure: The ability of certain antibodies was tested for binding to rabbit TF. For rabbit TF Biacore-based measurements, a given anti-TF antibody was captured by an anti-human IgG antibody covalently coupled to a CM5 chip (GE Healthcare Bio-Sciences). Association between the anti-TF antibodies and a five-point three-fold titration of rabbit TF-His starting at 100 nM was measured for 180 to 240 sec. Subsequently, dissociation between the anti-TF antibody and TF-His was measured for 1800 sec. Kinetic data was analyzed and fitted globally using a 1:1 binding model.

[11] = biological target: T1, pig TF ECD-His (TF-His) protein; experiment: Biacore; antibody captured by anti-human IgG on CM5 chip, titration of pig TF-His, 1:1 model
Procedure: The ability of certain antibodies was tested for binding to pig TF. For pig TF Biacore-based measurements, a given anti-TF antibody was captured by an anti-human IgG antibody covalently coupled to a CM5 chip (GE Healthcare Bio-Sciences). Association between the anti-TF antibodies and a five-point three-fold titration of pig TF-His starting at 100 nM was measured for 180 to 240 sec. Subsequently, dissociation between the anti-TF antibody and TF-His was measured for 1800 sec. Kinetic data was analyzed and fitted globally using a 1:1 binding model.

[12] = biological target: T3, human Tissue Factor (hTF); experiment: cell-based or functional assay; remark: listed apart in the source
[13] = biological target: T5, human Tissue Factor on human TF-positive cells (human, UniProt P13726 33-295); experiment: flow cytometry, titration of the MC-vc-PAB-MMAE ADC on HCT-116 cells (human TF), 4-parameter fit of MFI
T5 construct: also called hTF; CD142

Row | Binder | % FVIIa [1] | % FVIIa [3] | % FVIIa [4] | % GM-CSF at 2.56 nM antibody [6] | % GM-CSF at 6.4 nM antibody [6] | % GM-CSF at 16 nM antibody [6] | % GM-CSF at 40 nM antibody [6] | % GM-CSF at 100 nM antibody [6] | % IL8 at 2.56 nM antibody [7] | % IL8 at 6.4 nM antibody [7] | % IL8 at 16 nM antibody [7] | % IL8 at 40 nM antibody [7] | % IL8 at 100 nM antibody [7] | IC50, cell viability of A431 cells, Secondary ADC (antibody with anti-human Fc Fab:MMAF), Continuous (FIG. 18B) [9] | Kd [10] | Kd [11] | also measured
1 | 25A (antibody, human IgG1, V domains shown, Human IgG1; also called antibody designated 25A; Antibody Clone 25A) VH: QVQLVQSGAEVKKPGASVKVSCKASGYTFDVYGISWVRQAPGQGLEWMGWIAPYNGNTNYAQKLQGRVTMTTDTSTSTAYMELRSLRSDDTAVYYCARDAGTYSPFGYGMDVWGQGTTVTVSS VL: DIQMTQSPSTLSASVGDRVTITCRASQSISSWLAWYQQKPGKAPKLLIYKASSLESGVPSRFSGSGSGTEFTLTISSLQPDDFATYYCQQFQSLPPFTFGGGTKVEIK | 97% | 100% | 98% | 57% | 24% | 22% | 19% | 22% | 43% | 11% | 10% | 8% | 9% |  |  |  | % 25A binding [2]: 3%; % 43Ea binding [5]: 1%
2 | 39A (antibody, human IgG1, V domains shown, Human IgG1; also called antibody designated 39A) VH: QVQLVQSGAEVKKPGSSVKVSCKASGGTFSSNAIGWVRQAPGQGLEWMGSIIPIIGFANYAQKFQGRVTITADESTSTAYMELSSLRSEDTAVYYCARDSGYYYGASSFGMDVWGQGTTVTVSS VL: EIVMTQSPATLSVSPGERATLSCRASQSVSSNLAWYQQKPGQAPRLLIYGASTRATGIPARFSGSGSGTEFTLTISSLQSEDFAVYYCEQYNNLPLTFGGGTKVEIK | 2% | 2% | 2% | 42% | 8% | 5% | 5% | 7% | 52% | 6% | 2% | 2% | 3% |  |  |  | % FVIIa [8]: 2%
3 | anti-TF antibody 25G1 (antibody, human IgG1, V domains shown, Human IgG1) VH: QVQLVQSGAEVKKPGASVKVSCKASGYTFRSYGISWVRQAPGQGLEWMGWVAPYSGNTNYAQKLQGRVTMTTDTSTSTAYMELRSLRSDDTAVYYCARDAGTYSPYGYGMDVWGQGTTVTVSS VL: DIQMTQSPSTLSASVGDRVTITCRASHSIDSWLAWYQQKPGKAPKLLIYKASYLESGVPSRFSGSGSGTEFTLTISSLQPDDFATYYCQLFQSLPPFTFGGGTKVEIK |  |  |  |  |  |  |  |  |  |  |  |  |  | 0.08 nM | 3.6 nM | 2.6 nM | 
4 | anti-TF antibody 43D7 (antibody, human IgG1, V domains shown, Human IgG1) VH: QVQLQQWGAGLLKPSETLSLTCAVYGGSLSGYYWSWIRQPPGKGLEWIGEIGASGSTRYNPSLKSRVTISVDTSKNQFSLKLSSVTAADTAVYYCARDTPYYYEGGYYYYMDVWGKGTTVTVSS VL: EIVLTQSPGTLSLSPGERATLSCRASDSVDSSYLAWYQQKPGQAPRLLIYGAFSRANGIPDRFSGSGSGTDFTLTISRLEPEDFAVYYCQQAGVVPYTFGGGTKVEIK |  |  |  |  |  |  |  |  |  |  |  |  |  | 0.1 nM | 6.8 nM | 8.8 nM | 
5 | 25A-vc-MMAE (antibody, IgG1, V domains shown, MC-vc-PAB-MMAE on cysteines of the partially reduced antibody (chain and positions not stated), DAR 3-4, Antibody-drug conjugate (primary ADC) of the IgG1 antibody; also called 25A ADC; 25A conjugated to MC-vc-PAB-MMAE) VH: QVQLVQSGAEVKKPGASVKVSCKASGYTFDVYGISWVRQAPGQGLEWMGWIAPYNGNTNYAQKLQGRVTMTTDTSTSTAYMELRSLRSDDTAVYYCARDAGTYSPFGYGMDVWGQGTTVTVSS VL: DIQMTQSPSTLSASVGDRVTITCRASQSISSWLAWYQQKPGKAPKLLIYKASSLESGVPSRFSGSGSGTEFTLTISSLQPDDFATYYCQQFQSLPPFTFGGGTKVEIK |  |  |  |  |  |  |  |  |  |  |  |  |  |  |  |  | IC50, cell viability of A431 cells, Primary ADC, 4 hr, followed by washout (FIG. 20B) [12]: 0.35 nM; IC50, cell viability of A431 cells, Primary ADC, 4 hr, followed by washout, absence of FVIIa (FIG. 21A) [12]: 0.18 nM; IC50, cell viability of A431 cells, Primary ADC, Continuous (FIG. 20A) [9]: 0.09 nM; IC50, cell viability of HPAF-II cells, Primary ADC, Continuous (FIG. 22E) [9]: 0.06 nM; IC50, cell viability of MDA-MB-231 cells, Primary ADC, Continuous (FIG. 22D) [9]: 0.14 nM; EC50 [13]: 0.34 nM
